Assay results taken from patent publication US6534640B1, “Methods and compositions to alter the cell surface expression of phosphatidylserine and other clot-promoting plasma membrane phospholipids” (Blood Center Research Foundation, priority 1996, dated 2003).
Numbering of substitutions follows the chain as printed. Blank lines part the entries; values can stand above or below the molecule they belong to.

Experiments:
[1] = tested on: human cell lines (Raji, HL60, Dami, HEL, W9, Jurkat, Molt-4, K562); test: Measurement of cell surface PS (FVa light chain binding, flow cytometry) in human cell lines after calcium ionophore; format: cell-based; conditions: 2 μM A23187, 1.2 mM free Ca2+
Description: Measurement of cell surface PS. Calcium ionophore-induced exposure of PS on the surface of all cell lines analyzed was detected by the specific binding of coagulation factor Va (light chain) as previously described (P. J. Sims, et al., J. Biol. Chem. 263:18205-18212, 1988; H. Kojima, et al., J. Clin. Invest. 94:2237-2243, 1994). Briefly, cells were washed twice to remove serum proteins and suspended (2×10^6 cells/ml) at 37° C. in RPMI 1640 supplemented with 0.1% BSA, 20 mM HEPES, and adjusted to 1.2 mM free [Ca^2+]. At time=0 A231.87 (0 or 2 μM final concentration) was added from 1 mM stock solution in DMSO, and at times indicated in figure legends, the reaction was stopped by addition of 6 mM EGTA. PS exposed on the cell surface at each time point was detected by incubating (10 minutes, room temperature) 50 μl of the cell suspension with […] FVa, followed by 10 μg/ml anti-FVa, to detect the cell-bound FVa light chain. After staining with 10 μg/ml Tri-Color conjugated goat anti-mouse IgG (CALTAG Laboratories, Burlingame, Calif.), single-cell fluorescence was quantitated by flow cytometry (FL3 channel, FACScan, Becton Dickinson Immunocytometry Systems). Use of Tri-Color conjugate to detect cell-bound FVa enabled simultaneous measurement of cell-associated GFP fluorescence in cell lines transformed with the pEGFP-C2 expression plasmid (fluorescence of GFP detected in FL1 channel). In experiments in which cell lysis was monitored by uptake of propidium iodide, cells were stained for bound FVa with FITC-conjugate of goat anti-mouse IgG (FL1 channel) substituting for Tri-Color conjugate, and propidium iodide was detected in FL3 channel. Propidium iodide (0.5 μg/ml) was added immediately before dilution for flow cytometry.
FIG. 8 depicts western blot analysis of PL scramblase in various human cell lines. Constitutive expression of PL scramblase was analyzed in the human cell lines indicated. […] At times shown (abscissa), EGTA was added and cells analyzed for surface exposed PS as detected by cell-bound FVa light chain (see Materials and Methods). […]

human PL scramblase = test: PL scramblase activity: Ca2+-dependent transbilayer movement of NBD-PC in reconstituted PC/PS proteoliposomes; format: biochemical; conditions: for apparent avidity for Ca2+ of mutant human PL scramblase: activity as function of external free [Ca2+]; for PL scramblase function of Ala-substituted mutants of the EF-hand loop vs wild type: mutant human PL scramblase, 2 mM CaCl2
Description: Reconstitution of PL scramblase or scramblase fusion protein into proteoliposomes. Reconstitution and functional activity were performed essentially as previously described (F. Bassé, et al., J. Biol. Chem. 271:17205-17210, 1996; J. G. Stout, et al., J. Clin. Invest. 99:2232-2238, 1997). Briefly, a mixture of PC and PS (9:1 molar ratio) was dried under a stream of nitrogen and resuspended in 100 mM Tris, 100 mM KCl, 0.1 mM EGTA, pH 7.4 (Tris buffer). Protein samples to be reconstituted were added to the liposomes at a final lipid concentration of 4 mg/ml in the presence of 60 mM OG, and dialyzed overnight at 4° C. against 200 vol of Tris buffer containing 1 g/L Bio-Beads SM-2. To liberate PL scramblase from MBP, the proteoliposomes were incubated 3 h at room temperature in the presence of 1/40 (w/w) factor Xa. The digestion was terminated by addition of 100 μM Glu-Gly-Arg chloromethyl ketone. Completeness of the digest was monitored by SDS-PAGE. Following dialysis, the proteoliposomes were labeled in the outer leaflet by addition of 0.25 mol % fluorescent NBD-PC (in dimethyl sulfoxide, final solvent concentration 0.25%).
PL Scramblase activity. Scramblase activity was measured as previously described (F. Bassé, et al., supra, 1996; J. G. Stout, et al., supra, 1997 and in U.S. Ser. No. 08/790,186). Routinely, proteoliposomes labeled with NBD-PC were incubated for 2 hours at 37° C. in Tris buffer in the presence or absence of 2 mM CaCl2. Proteoliposomes were diluted 25-fold in Tris buffer containing 4 mM EGTA and transferred to a stirred fluorescence cuvet at 23° C. Initial fluorescence was recorded (SLM Aminco 8000 spectrof luorimeter; excitation at 470 nm, emission at 532 nm), 20 mM dithionite was added, and the fluorescence continuously monitored for a total of 120 seconds. The difference in non-quenchable fluorescence observed in presence vs. absence of CaCl2 Was attributed to Ca^2+-induced change in NBD-PC located in the outer leaflet (F. Bassé, et al., supra, 1996; J. G. Stout, et al., supra, 1997; J. C. McIntyre and R.G. Sleight, Biochemistry 30:11819-11827, 1991). Ionized [Ca^2+] was calculated using FreeCal version 4.0 software (generously provided by Dr. Lawrence F. Brass, University of Pennsylvania, Philadelphia, Pa.).
(§1) Reconstitution and Functional Activity of PL Scramblase: Reconstitution, removal of MBP, and functional assay of PL scramblase were performed as previously described (F. Bassé, et al., J. Biol. Chem. 271:17205-17210, 1996; Q. Zhou, et al., supra, 1997; J. G. Stout, et al., J. Clin. Invest. 99:2232-2238, 1997). Routinely, 420 pmoles of protein were reconstituted with 1 μmol of PL. To remove MBP, proteoliposomes were incubated 3 hours at room temperature with 1/40 (w/w) factor Xa. The digest was terminated by addition of 100 μM Glu-Gly-Arg chloromethyl ketone. Proteoliposomes labeled with NBD-PC were incubated for 2 hours at 37° C. in Tris buffer in the presence or absence of CaCl2 as indicated in figure legends and diluted 25-fold in Tris buffer containing 4 mM EGTA. Initial fluorescence was recorded (SLM Aminco 8000 spectrofluorimeter; excitation at 470 nm, emission at 532 nm), 20 mM dithionite was added, and the fluorescence was continuously monitored for a total of 120 seconds. Scramblase activity was calculated according to the difference in non-quenchable fluorescence observed in presence vs absence of CaCl2. Ionized [Ca^2+] was calculated using FreeCal version 4.0 software (generously provided by Dr. Lawrence F. Brass, University of Pennsylvania, Philadelphia, Pa.).
Mutagenesis of PL Scramblase: Human PL scramblase amino acid residues in EF-hand Ca^2+-binding motif at positions of Asp^273, Asp^275, Phe^277, Ile^279, Phe^281 and Asp^284 were mutated to Ala with oligonucleotide-directed mutagenesis by two rounds of PCR. […]

mouse PL scramblase = target: T1, mouse PL scramblase (Mus musculus, UniProt Q9DCW2); test: PL scramblase activity of recombinant mouse protein in reconstituted PC/PS proteoliposomes; format: biochemical; conditions: 420 pmoles protein, 1 μmol PL
T1 construct: made in house; host or cells: E. coli TB1 (pMAL-C2)
T1 sequence (Q9DCW2 1-307): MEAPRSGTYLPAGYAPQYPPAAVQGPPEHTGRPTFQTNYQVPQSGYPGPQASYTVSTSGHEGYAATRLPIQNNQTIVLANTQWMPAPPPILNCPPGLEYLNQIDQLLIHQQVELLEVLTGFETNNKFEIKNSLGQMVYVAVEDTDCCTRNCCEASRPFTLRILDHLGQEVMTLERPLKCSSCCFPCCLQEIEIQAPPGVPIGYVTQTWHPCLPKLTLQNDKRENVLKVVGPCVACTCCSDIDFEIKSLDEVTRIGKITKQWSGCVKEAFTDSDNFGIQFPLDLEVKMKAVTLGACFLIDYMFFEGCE
Description: Expression and Purification of Mouse PL Scramblase-MBP Fusion Protein: Mouse PL scramblase was expressed as fusion protein with MBP in E. coli TB1 and purified on amylose resin as previously described for human PL scramblase (Q. Zhou, et al., J. Biol. Chem. 272:18240-18244, 1997). The purified fusion protein was centrifuged at 106,000×g for 1 hour at 4° C. to remove aggregated protein.
as §1
Functional Activity of Recombinant Mouse PL Scramblase. In order to confirm that the cDNA identified as mouse PL scramblase encodes a protein of similar function to that identified in human, the human and mouse proteins were each expressed in E. coli, purified, and reconstituted in proteoliposomes for measurement of PL mobilizing activity. Mouse or human PL scramblase-MBP fusion protein (420 pmoles) was reconstituted into PC/PS liposomes (1 μmol total PL), respectively, MBP was removed by digestion of the proteoliposomes with factor Xa, and PL scramblase activity was determined as described under “Experimental Procedures” and plotted as a function of external free [Ca^2+]. The results of this experiment indicate that recombinant mouse PL scramblase mediated a Ca^2+-dependent transbilayer movement of membrane PL with a specific activity and affinity for Ca^2+ indistinguishable from that observed for the recombinant human protein.

Molecule: CNc1ccc2oc(C[C@H]3O[C@@]4(CC[C@H]3C)O[C@H]([C@H](C)C(=O)c3ccc[nH]3)[C@H](C)C[C@H]4C)nc2c1C(=O)O [A23187]
PS mobilized to the cell surface in response to calcium ionophore ([1]; HEL, W9 and Jurkat cells): notably robust responses | PS mobilized to the cell surface in response to calcium ionophore ([1]; Molt-4 and K562 cells): intermediate responses | PS mobilized to the cell surface in response to calcium ionophore ([1]; Raji, HL60 and Dami cells): notably unresponsive

B2: Asp273: Mutant human PL scramblase with Ala substitution at Asp273 (EF-hand loop position 1) (protein, listed as Homo sapiens)
chain: MDKQNSQMNASHPETNLPVGYPPQYPPTAFQGPPGYSGYPGPQVSYPPPPAGHSGPGPAGFPVPNQPVYNQPVYNQPVGAAGVPWMPAPQPPLNCPPGLEYLSQIDQILIHQQIELLEVLTGFETNNKYEIKNSFGQRVYFAAEDTDCCTRNCCGPSRPFTLRIIDNMGQEVITLERPLRCSSCCCPCCLQEIEIQAPPGVPIGYVIQTWHPCLPKFTIQNEKREDVLKISGPCVVCSCCGDVDFEIKSLDEQCVVGKISKHWTGILREAFTAADNFGIQFPLDLDVKMKAVMIGACFLIDFMFFESTGSQEQKSGVW
apparent avidity for Ca2+ of mutant human PL scramblase (human PL scramblase): significant reduction | PL scramblase function of Ala-substituted mutants of the EF-hand loop vs wild type (human PL scramblase): partial loss of function

B3: Asp284: Mutant human PL scramblase with Ala substitution at Asp284 (EF-hand loop position 12) (protein, UniProt O15162 1-318, looked up, variant D284A)
Phospholipid scramblase 1: B2 chain with A273D, D284A
apparent avidity for Ca2+ of mutant human PL scramblase (human PL scramblase): significant reduction | PL scramblase function of Ala-substituted mutants of the EF-hand loop vs wild type (human PL scramblase): partial loss of function

Now from value to molecule, other results behind:

apparent avidity for Ca2+ of mutant human PL scramblase (human PL scramblase): significant reduction | PL scramblase function of Ala-substituted mutants of the EF-hand loop vs wild type (human PL scramblase): complete inactivation
B1: Asp275: Mutant human PL scramblase with Ala substitution at Asp275 (EF-hand loop position 3) (protein, UniProt O15162 1-318, looked up, variant D275A)
Phospholipid scramblase 1: B2 chain with A273D, D275A

affinity for Ca2+ compared with recombinant human protein (mouse PL scramblase): indistinguishable | affinity for Ca2+ compared with recombinant human protein (mouse PL scramblase; listed as murine PL scramblase): virtually the same
B4: recombinant mouse PL scramblase: Recombinant murine PL scramblase (SEQ ID NO:4), 307 residues, expressed in E. coli (protein, listed as Mus musculus)
chain: T1 sequence (Q9DCW2 1-307) with Q168N, K178R, K221L, D242S, K256L, K259L, K266L
specific activity (Ca2+-dependent transbilayer movement of membrane PL) compared with recombinant human protein (mouse PL scramblase): indistinguishable | specific activity (Ca2+-dependent transbilayer movement of membrane PL) compared with recombinant human protein (mouse PL scramblase; listed as murine PL scramblase): the same activity
